Measurements taken from IntAct's records for PubMed 22493500.

B1: Colicin-A (Citrobacter freundii), P04480 (parent)
chain: MPGFNYGGKGDGTGWSSERGSGPEPGGGSHGNSGGHDRGDSSNVGNESVTVMKPGDSYNTPWGKVIINAAGQPTMNGTVMTADNSSMVPYGRGFTRVLNSLVNNPVSPAGQNGGKSPVQTAVENYLMVQSGNLPPGYWLSNGKVMTEVREERTSGGGGKNGNERTWTVKVPREVPQLTASYNEGMRIRQEAADRARAEANARALAEEEARAIASGKSKAEFDAGKRVEAAQAAINTAQLNVNNLSGAVSAANQVITQKQAEMTPLKNELAAANQRVQETLKFINDPIRSRIHFNMRSGLIRAQHNVDTKQNEINAAVANRDALNSQLSQANNILQNARNEKSAADAALSAATAQRLQAEAALRAAAEAAEKARQRQAEEAERQRQAMEVAEKAKDERELLEKTSELIAGMGDKIGEHLGDKYKAIAKDIADNIKNFQGKTIRSFDDAMASLNKITANPAMKINKADRDALVNAWKHVDAQDMANKLGNLSKAFKVADVVMKVEKVREKSIEGYETGNWGPLMLEVESWVLSGIASSVALGIFSATLGAYALSLGVPAIAVGIAGILLAAVVGALIDDKFADALNNEIIRPAH
partner: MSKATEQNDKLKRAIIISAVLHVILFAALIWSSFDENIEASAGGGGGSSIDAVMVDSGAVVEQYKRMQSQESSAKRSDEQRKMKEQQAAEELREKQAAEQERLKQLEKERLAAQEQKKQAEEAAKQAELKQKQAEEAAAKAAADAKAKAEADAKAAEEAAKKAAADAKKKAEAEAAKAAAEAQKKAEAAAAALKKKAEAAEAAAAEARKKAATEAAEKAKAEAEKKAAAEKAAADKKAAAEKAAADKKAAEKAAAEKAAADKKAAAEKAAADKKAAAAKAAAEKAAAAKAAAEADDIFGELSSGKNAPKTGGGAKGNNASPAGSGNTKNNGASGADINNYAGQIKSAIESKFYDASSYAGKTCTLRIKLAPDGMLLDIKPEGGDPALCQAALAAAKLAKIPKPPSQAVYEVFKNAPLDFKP

Variants of: B1
Details: with tola_ecoli tolA

Variant	effect of a mutation on the interaction
Y58A	disrupting interaction
